# In patent US20230331852A1 (OSE IMMUNOTHERAPEUTICS, published 2023):
# T1: human CLEC-1A expressed on the cell membrane (human, UniProt Q8NC01 1-280)
# T1 construct: Endogenous on human U266 myeloma cells, on monocyte-derived TGFb-DC and macrophages; on CHO cells after transduction with a Clec-1 expressing lentivirus; also called U266 CLEC1; CLEC-1A on U266 cells
# T1 sequence: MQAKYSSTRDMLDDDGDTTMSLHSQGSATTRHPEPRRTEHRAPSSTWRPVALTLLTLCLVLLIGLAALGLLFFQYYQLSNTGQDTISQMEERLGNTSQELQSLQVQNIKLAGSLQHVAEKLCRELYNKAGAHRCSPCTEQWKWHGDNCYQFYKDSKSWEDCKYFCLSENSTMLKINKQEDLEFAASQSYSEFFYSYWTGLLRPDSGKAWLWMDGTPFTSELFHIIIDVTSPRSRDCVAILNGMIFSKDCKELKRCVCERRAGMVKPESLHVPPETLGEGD
# T2: recombinant human CLEC-1 protein with His Tag (#1704-CL R&D Systems) (human, UniProt Q8NC01 74-280)
# T2 construct: Bought protein; also called His-CLEC1; His Clec-1; not shown: His tag
# T2 sequence: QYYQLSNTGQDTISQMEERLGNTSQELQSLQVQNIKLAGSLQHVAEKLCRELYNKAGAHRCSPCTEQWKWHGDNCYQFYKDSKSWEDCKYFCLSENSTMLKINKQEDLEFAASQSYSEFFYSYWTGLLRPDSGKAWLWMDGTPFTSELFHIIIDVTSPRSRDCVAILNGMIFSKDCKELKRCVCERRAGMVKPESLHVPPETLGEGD
# T3: Fc-CLEC1 labelled with Alexa Fluor 488 (human, Alexa Fluor 488 label (sites not given))
# T3 construct: also called Fc-CLEC1-A488; Alexa488-Fc-Clec-1
# T3 chain: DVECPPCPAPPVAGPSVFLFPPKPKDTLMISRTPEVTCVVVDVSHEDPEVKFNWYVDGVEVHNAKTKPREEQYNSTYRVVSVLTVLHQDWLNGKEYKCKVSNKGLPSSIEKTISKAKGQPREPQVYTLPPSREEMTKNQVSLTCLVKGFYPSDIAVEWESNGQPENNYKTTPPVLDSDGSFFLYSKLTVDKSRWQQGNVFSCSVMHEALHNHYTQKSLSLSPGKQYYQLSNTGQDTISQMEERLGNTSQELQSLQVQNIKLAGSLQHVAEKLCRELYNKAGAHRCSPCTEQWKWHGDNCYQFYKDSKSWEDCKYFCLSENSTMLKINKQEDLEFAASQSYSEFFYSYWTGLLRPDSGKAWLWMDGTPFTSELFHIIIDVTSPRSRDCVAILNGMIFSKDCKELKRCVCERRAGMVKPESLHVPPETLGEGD
# Legend:
# [1] = biological target: T1, human CLEC-1A expressed on the cell …; test: flow cytometry on U266 cells
# Experimental: (§1) Method: To measure binding of anti-CLEC1 on human U266 cell lines (pre-blocked with Fcblock to blocking FcR), antibodies at different concentrations were incubated for 30 min at 4° C., and washed before stained 30 min at 4° C. with PE-labelled anti-human IgG (Biolegend; reference 409304). Samples were analyzed on Cytoflex cytofluorometer (Beckman Coulter). The MFI of anti-CLEC1 was compared between all anti-CLEC1 antibodies and percentage of stained cells was analysed in all conditions.
# [2] = biological target: T2, recombinant human CLEC-1 protein with …; test: ELISA on immobilised His-CLEC1 (from FIGURE 12)
# Experimental: Method: The binding activity of the anti-hCLEC1 antibodies was assessed by ELISA (Enzyme-linked immunosorbent assay). […] A second ELISA assays was performed, like above, with immobilization of CLEC1-Fc (OSE Immunotherapeutics) at 2 μg/ml. A third ELISA assays was performed to see the cross-reactivity with mouse CLEC1. Like above, ELISA was made with immobilization of mouse Fc-CLEC1 (OSE Immunotherapeutics) at 2 μg/ml in carbonate buffer instead of His-Clec. Purified antibodies were added at different concentrations to measure binding. […] Control antibody is a commercial anti-CLEC-1A antibody.
# [3] = biological target: T1, human CLEC-1A expressed on the cell …; test: flow cytometry on U266 cells, PE anti-human IgG; % positive cells
# Experimental: as §1
# [4] = biological target: T2, recombinant human CLEC-1 protein with …; test: BLI (Blitz), CLEC1-His on Ni-NTA biosensor, antibody at 20 ug/mL; chimeric antibody, FIG. 17
# Experimental: Analysis was performed with a BLItz System (Fortébio, #C22-2 No 61010-1, Molecular Devices, San José, USA).
# The affinity of the anti-hCLEC1 antibodies, was measured with Blitz system (Forté Bio, C22-2 No 61010-1).
# [5] = biological target: T2, recombinant human CLEC-1 protein with …; test: Blitz biolayer interferometry, His-CLEC1 on Ni-NTA biosensor, antibody at 20 ug/mL
# [6] = biological target: T3, Fc-CLEC1 labelled with Alexa Fluor 488; test: FACS competition: blocks Fc-CLEC1-A488 (10 nM) binding to CLEC-1 ligand on UV-treated PBMC; % binding
# Experimental: Competition were also measured on UV pre-treated pro-apoptotic human PBMCs, which can also express the ligand after a treatment under UV radiation for 18 hours. After UV treatment, cells were first washed in cold-PSE and then blocked during 30 min at room temperature with human Fc-block 50-fold diluted in PSE, and then replaced on ice. Purified anti-Clec antibodies at different concentrations were pre-incubated with Alexa488-Fc-Clec-1 in PSE at different concentrations for 15 min at room temperature. Pre-incubated mixes were then incubated on Fc-blocked/SAB (#34005-100, Invitrogen, Illkirch, France) pro-apoptotic PBMCs for 30 min on ice. Binding on cells were then fixed by PFA 2% in cold PBS for 10 min on ice and analyzed on CytoFlex cytofluorometer (Beckman Coulter France, Villepinte).
# Methods. To measure competition on permeabilised Raji (CytoFix/cytoperm kit, BD Biosciences) which expressed CLEC1 ligand, Fc-CLEC1-labelled A488 which bound specifically to permeabilised Raji was used. To measure competition, Fc-CLEC1 labelled A488 at 10 nM or 20 nM was mixed with mouse anti-hCLEC1 at different concentrations for 15 min at RT then added on these cells for 30 min at 4° C. […] To measure competition on PMBC, we used human PBMC pre-treated by UV for 18 h to obtain apoptotic PBMC, which expressed CLEC1 ligand. Fc-CLEC1-labelled A488 bound specifically apoptotic UV-treated PBMC. To measure competition, Fc-CLEC1 labelled A488 at 10 nM was mixed with mouse anti-hCLEC1 at different concentrations for 15 min at RT then added on these cells for 30 min at 4° C.
binder,measurement,setting,value
"chimeric anti-CLEC-1A antibody 14H9 (antibody, human IgG4 S228P, kappa, V domains shown, also called 14H9chim; 14H9-VHwt-FcG4m / 14H9-VLwt-CLhk) VH: QVQLKESGPGLVAPSQSLSITCTISGFSLTTYGIHWVRQPPGKGLEWLVVIWSDGSTIYNSALKSRLSISKDNSKSQVFLKMNSLQTDDTAIYYCARHGGYYNYFDYWGQGTTLTVSS VL: DIQMNQSPSSLSASLGDTITITCHASQNINVWLSWYQQKPGNIPKLLIYKASNLHTGVPSRFSGSGSGTTFTLTIDSLQPEDIATYYCQQGQSYWTFGGGTKLEIKR",EC50,[1],0.113 µg/mL
same,EC50,[2],0.148 µg/mL
same,EC50 (read off the curve),[3],~0.06 µg/mL
same,Kd,[4],~10 nM
same,Kd,[5],15.9 nM
same,koff,[5],0.00124 s⁻¹
same,kon,[5],78000 M⁻¹ s⁻¹
same,IC50 (read off the curve),[6],~0.7 µg/mL
